{"source": "paper PMC3156286", "about": "(Journal of molecular biology, 2011)", "proteins": {"B1": {"name": "full length Nhp2p (natural protein, S. cerevisiae, UniProt P32495 1-156, looked up)", "chain": "MGKDNKEHKESKESKTVDNYEARMPAVLPFAKPLASKKLNKKVLKTVKKASKAKNVKRGVKEVVKALRKGEKGLVVIAGDISPADVISHIPVLCEDHSVPYIFIPSKQDLGAAGATKRPTSVVFIVPGSNKKKDGKNKEEEYKESFNEVVKEVQAL"}}, "target": "the molecule itself", "test": "SEC", "data": [{"protein": "B1", "values": [{"measurement": "stoichiometry N", "value": 2}]}]}
